The values below come from patent US20230037911A1 (SHANGHAI HENLIUS BIOTECH, published 2023).

A value given as a limit tells only on which side of the number the result lay.

The target of assay [1] is T1, recombinant human TIGIT extra cellular domain (ECD) protein (human, UniProt Q495A1 22-138).
T1 construct: Purchased protein; it begins with the signal peptide; also called h-TIGIT ECD; human TIGIT ECD
T1 sequence: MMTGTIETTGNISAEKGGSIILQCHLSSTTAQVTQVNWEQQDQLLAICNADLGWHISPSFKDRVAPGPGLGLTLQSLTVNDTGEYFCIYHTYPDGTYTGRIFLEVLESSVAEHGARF
The experiment in a line: blocking ELISA, PVR as competitor. In general terms: In an ELISA, binding on a coated surface is turned into a signal by an enzyme label.

Assay [2] concerns the target T2, human TIGIT stably expressed on cells (Jurkat; 293T) (human, UniProt Q495A1 22-244).
T2 construct: the expression vector's insert is not described further; also called h-TIGIT; human TIGIT transfected Jurkat cells
T2 sequence: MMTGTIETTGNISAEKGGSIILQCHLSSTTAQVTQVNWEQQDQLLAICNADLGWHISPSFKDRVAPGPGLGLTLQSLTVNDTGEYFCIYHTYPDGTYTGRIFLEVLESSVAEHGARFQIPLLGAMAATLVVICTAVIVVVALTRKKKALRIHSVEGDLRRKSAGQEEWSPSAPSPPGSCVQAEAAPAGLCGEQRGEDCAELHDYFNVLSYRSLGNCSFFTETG
Nature of the assay: flow cytometry on Jurkat cells stably expressing h-TIGIT; VHH samples heated at 25 to 70 °C for 60 min (thermostability); concentration not given. On the procedure:
(§1) FIGS. 6A and 6B depict thermostability tested for representative clones. The VHH antibody samples were heated from 25 to 70° C. for 60 min. Binding of heated samples to human TIGIT was examined using ELISA or whole cell binding. […] Y axis represents OD450 obtained from the ELISA assay. X axis represents temperature for the treatment. […] Y axis represents percentage of binding to h-TIGIT. X axis represents temperature for the treatment.
(A flow cytometer gives signals particle by particle.)

The target in assay [3] is T1, recombinant human TIGIT extra cellular …. Nature of the assay: ELISA on h-TIGIT ECD; VHH samples heated at 25 to 70 °C for 60 min (thermostability); concentration not given. On the procedure: as §1
The target in assay [4] is T2, human TIGIT stably expressed on cells …. The experiment in a line: whole cell binding.
Assay [5] shares this target. The experiment in a line: flow cytometry on h-TIGIT stably transfected Jurkat cells; anti-h-IgG Fc AlexaFluor488 secondary.
Assay [6] addresses T3, recombinant protein of his-tagged human TIGIT ECD (human, UniProt Q495A1 22-138).
T3 construct: Used in Octet assays; also called h-TIGIT ECD (his-tagged); not shown: his tag
T3 sequence: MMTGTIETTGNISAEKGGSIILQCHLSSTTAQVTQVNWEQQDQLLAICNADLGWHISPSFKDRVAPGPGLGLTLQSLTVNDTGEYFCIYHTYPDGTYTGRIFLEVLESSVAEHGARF
Nature of the assay: Octet biolayer interferometry; BsAb loaded on the sensor, his-tagged h-TIGIT ECD at different concentrations (not given), then h-PDL1 ECD. The method, then: The sensors were loaded with BsAbs and then injected with different concentrations of recombinant protein of h-TIGIT ECD (his-tagged). After association of BsAbs with h-TIGIT, the sensors were injected again with different concentrations of recombinant protein of h-PDL1 ECD (his-tagged). […] Y axis represents association/disassociation and Rmax, X axis represents time in second.

B1: 2B10 VHH (VHH)
VHH: QVKLEESGGGLVQTGDSLRLSCAASSRIFRRYAMGWFRQAPGKEREFVAAITWSGASTTYTDSVKGRFTISRDSAENTTYLQMTSLRPEDTAVYYCAADPWGSVIVGTAEYEYWGQGTLVTVSS
notes: VHH in bacterial supernatant
Consider B1, for which, in assay [1], the “inhibition of PVR binding to h-TIGIT” value was greater than 90%.

B2: 1C12 VHH (VHH)
VHH: QVQLVESGGGLVQTGDSLRLSCAASSRIFSRYGMGWFRQAPGKEREFVAAISWNGASTTYTDSVKGRFTISRDSAENTTYLQINSLRPEDTAVYYCAADPWGAVKLGTAEYEYWGQGTQVTVSS
notes: VHH in bacterial supernatant
For the molecule B2, the “inhibition of PVR binding to h-TIGIT” value in assay [1] is greater than 90%.

B3: 3F10 VHH (VHH)
VHH: QVQLVESGGGLVQAGGSLRLSCASSEHTFSNFPMGWFRQAPGKERNVVAAIDSSGRLTYYADSVKGRFTISKDNAKSTVYLQMNSLKSEDTARYYCAARTGGVGYYSRSSFYNYWGQGTLVTVSS
notes: VHH in bacterial supernatant
As to B3, the “inhibition of PVR binding to h-TIGIT” value in assay [1] is greater than 90%.

B4: 3G7 VHH (VHH)
VHH: QVQLVESGGGLVQAGDSLRLSCEASGRTLSTYTMGWFRRAPGKEREFVGLAWPSPSTYVVDSVKGRFTISRDNAKNTIYLQMNSLKPEDTAIYYCAADYKSLTQSWLNAALDYWGQGTQVTVSS
notes: VHH in bacterial supernatant
In the case of B4, in assay [1], the “inhibition of PVR binding to h-TIGIT” value is greater than 90%.

B5: 1A8 VHH (VHH)
VHH: QVQLVESGGGVVQPGRSLRLSCAASGPSFSSYPMGWFRQAPGKERESVAAISSRGRFTYYADSVKGRFTISRDNSKNTLYLQMNSLRAEDTAVYYCAARDSGSGYYSRAQWYDYWGQGTLVTVSS
notes: VHH in bacterial supernatant
Regarding B5, the binding result in assay [2] and in assay [3] was “binds” in each case.

B6: 2A3 MI (2A3 with methionine to isoleucine in CDR2) (VHH)
VHH: QVQLVESGGGVVQPGRSLRLSCAASGGSFSSYPMGWFRQAPGKERESVAAISSDIRFTYYADSVKGRFTISRDNSKNTLYLQMNSLRAEDTAVYYCAARDSGVGYYSRAQWYDYWGQGTLVTVSS
In the case of B6, the binding result in assay [4] is “binds”.

B7: 7F6 VHH (VHH)
VHH: QVQLVESGGGVVQPGRSLRLSCAASGPMFSSYPMGWFRQAPGKERESVAAISSDPRFTYYADSVKGRFTISRDNSKNTLYLQMNSLRAEDTAVYYCAARDSGSGYYSRAQWYDYWGQGTLVTVSS
notes: VHH in bacterial supernatant
As for B7, the binding result in assay [2] and in assay [3] was “binds” throughout.

B8: 2A3 ML (2A3 with methionine to leucine in CDR2) (VHH)
VHH: QVQLVESGGGVVQPGRSLRLSCAASGGSFSSYPMGWFRQAPGKERESVAAISSDLRFTYYADSVKGRFTISRDNSKNTLYLQMNSLRAEDTAVYYCAARDSGVGYYSRAQWYDYWGQGTLVTVSS
On to B8, for which the binding result in assay [4] is “binds”.

B9: 6F12 VHH (VHH)
VHH: QVQLVESGGGVVQPGRSLRLSCAASGPSFTSYPMGWFRQAPGKERESVAAISSDGRFKYYADSVKGRFTISRDNSKNTLYLQMNSLRAEDTAVYYCAAEDSGSGYYSRAQWYDYWGQGTLVTVSS
notes: VHH in bacterial supernatant
Regarding B9, the binding result in assay [2] and in assay [3] was “binds” each time.

B10: 2A3 ML_DE (2A3 with M to L in CDR2 and D to E in CDR3) (VHH)
VHH: QVQLVESGGGVVQPGRSLRLSCAASGGSFSSYPMGWFRQAPGKERESVAAISSDLRFTYYADSVKGRFTISRDNSKNTLYLQMNSLRAEDTAVYYCAARESGVGYYSRAQWYDYWGQGTLVTVSS
Take B10: in assay [4], the binding result is “binds”.

B11: anti-TIGIT x anti-PDL1 bispecific antibody HCC (VHH 2A3 fused to the C-terminal of the anti-PDL1 heavy chain) (bispecific antibody, human IgG1, lambda)
heavy: not shown
light: QSVVTQPPPVSGAPGQRVTISCTGSSSNVGAGYDVHWYQQLPGTAPKLLIYGNSQRSSGVPDRFSGSKSGTSASLAITGLQAEDEADYYCQTYDSSGSARVVFGGGTKLTVLGQPKAAPSVTLFPPSSEELQANKATLVCLISDFYPGAVTVAWKADSSPVKAGVETTTPSKQSNNKYAASSYLSLTPEQWKSHKSYSCQVTHEGSTVEKTVAPTECS
notes: also called aTIGITx aPDL1-HCC; BsAb HCC
As for B11, the binding result in assay [5] and in assay [6] was “binds” throughout.

B12: anti-TIGIT x anti-PDL1 bispecific antibody HCN (VHH 2A3 fused to the N-terminal of the anti-PDL1 heavy chain) (bispecific antibody, human IgG1, lambda)
heavy: not shown
light: QSVVTQPPPVSGAPGQRVTISCTGSSSNVGAGYDVHWYQQLPGTAPKLLIYGNSQRSSGVPDRFSGSKSGTSASLAITGLQAEDEADYYCQTYDSSGSARVVFGGGTKLTVLGQPKAAPSVTLFPPSSEELQANKATLVCLISDFYPGAVTVAWKADSSPVKAGVETTTPSKQSNNKYAASSYLSLTPEQWKSHKSYSCQVTHEGSTVEKTVAPTECS
notes: also called aTIGITx aPDL1-HCN; BsAb HCN
With B12, the binding result in assay [5] and in assay [6] was “binds” each time.

B13: 3G6 VHH (VHH)
VHH: QVQLVESGGGLVQAGGSLSLSCAASGSIFGISVMGWYRQAPGEQRDLVATLTRAGLTTYGDSVKGRFSISRDSAKNTVYLQMNNLKPEDTAVYYCHANIMESAASTFGRYWGQGTQVTVSS
notes: VHH in bacterial supernatant
B13: the “inhibition of PVR binding to h-TIGIT” value in assay [1] is greater than 90%.

B14: anti-TIGIT x anti-PDL1 bispecific antibody LCC (VHH 2A3 fused to the C-terminal of the anti-PDL1 light chain) (bispecific antibody, human IgG1, lambda)
heavy: not shown
light: QSVVTQPPPVSGAPGQRVTISCTGSSSNVGAGYDVHWYQQLPGTAPKLLIYGNSQRSSGVPDRFSGSKSGTSASLAITGLQAEDEADYYCQTYDSSGSARVVFGGGTKLTVLGQPKAAPSVTLFPPSSEELQANKATLVCLISDFYPGAVTVAWKADSSPVKAGVETTTPSKQSNNKYAASSYLSLTPEQWKSHKSYSCQVTHEGSTVEKTVAPTECSGSGGSGGSGGSGQVQLVESGGGVVQPGRSLRLSCAASGGSFSSYPMGWFRQAPGKERESVAAISSDMRFTYYADSVKGRFTISRDNSKNTLYLQMNSLRAEDTAVYYCAARDSGVGYYSRAQWYDYWGQGTLVTVSS
notes: likely a printing error; also called aTIGITx aPDL1-LCC
Regarding B14, the binding result in assay [5] and in assay [6] was “binds” in each case.

B15: anti-TIGIT x anti-PDL1 bispecific antibody LCN (VHH 2A3 fused to the N-terminal of the anti-PDL1 light chain) (bispecific antibody, human IgG1, lambda)
heavy: not shown
light: QVQLVESGGGVVQPGRSLRLSCAASGGSFSSYPMGWFRQAPGKERESVAAISSDMRFTYYADSVKGRFTISRDNSKNTLYLQMNSLRAEDTAVYYCAARDSGVGYYSRAQWYDYWGQGTLVTVSSGSGGSGGSGGSGQSVVTQPPPVSGAPGQRVTISCTGSSSNVGAGYDVHWYQQLPGTAPKLLIYGNSQRSSGVPDRFSGSKSGTSASLAITGLQAEDEADYYCQTYDSSGSARVVFGGGTKLTVLGQPKAAPSVTLFPPSSEELQANKATLVCLISDFYPGAVTVAWKADSSPVKAGVETTTPSKQSNNKYAASSYLSLTPEQWKSHKSYSCQVTHEGSTVEKTVAPTECS
notes: also called aTIGITx aPDL1-LCN
Regarding B15, the binding result in assay [5] and in assay [6] was “binds” throughout.

B16: 13H11 VHH (VHH)
VHH: QVQLVESGGGLVQAGGSLRLSCAASGLTFSMYAMGWFRQGPGKERESVAAISSDGRFTYYAASVKGRFTISKDNAKSAAFLQMNSLKPEDTAVYYCAARDSGSGYYSRAQWYDYWGQGTQVTVSS
notes: VHH in bacterial supernatant
For B16, the “inhibition of PVR binding to h-TIGIT” value in assay [1] is greater than 90%.

B17: 2B7 VHH (VHH)
VHH: QVQLVESGGGLVQAGGSLRLACAASGRTFSSYPMGWFRQGPGKERESVAAISSDGRFTYYAASVKGRFTISKDNAKSAAFLQMNSLKPEDTAVYYCAARDSGSGYYSRAQWYDYWGQGTQVTVSS
notes: VHH in bacterial supernatant
For the molecule B17, in assay [1], the “inhibition of PVR binding to h-TIGIT” value was greater than 90%.

B18: 1G1 VHH (VHH)
VHH: QVQLVESGGGLVQAGDSLRLSCVASGPSFSSYPMGWFRQGPGKERESVAAISSDGRFTYYAASVKGRFTISKDNAKSAAFLQMNSLKPEDTAVYYCAARDSGSGYYSRAQWYDYWGQGTLVTVSS
notes: VHH in bacterial supernatant
As to B18, the “inhibition of PVR binding to h-TIGIT” value in assay [1] is greater than 90%.

B19: 15A5 VHH (VHH)
VHH: QVQLVESGGGLVQAGGSLRLSCAASERTFSSFAMGWFRQAPGKEREVVAAIDPSGRYIYYKDSVKGRFTMSRDNAKSTVYLQMNSLKPDDTARYYCAARIRGEGYYTRSSFYHYWGQGTQVTVSS
notes: VHH in bacterial supernatant
Take B19: the “inhibition of PVR binding to h-TIGIT” value in assay [1] was greater than 90%.
